Laboratory results taken from paper PMC2811759 (Biochemistry, 2010).

Biological target: T1, Xeroderma Pigmentosum group C (XPC) (human, UniProt Q01831 1-940)
T1 sequence (looked up): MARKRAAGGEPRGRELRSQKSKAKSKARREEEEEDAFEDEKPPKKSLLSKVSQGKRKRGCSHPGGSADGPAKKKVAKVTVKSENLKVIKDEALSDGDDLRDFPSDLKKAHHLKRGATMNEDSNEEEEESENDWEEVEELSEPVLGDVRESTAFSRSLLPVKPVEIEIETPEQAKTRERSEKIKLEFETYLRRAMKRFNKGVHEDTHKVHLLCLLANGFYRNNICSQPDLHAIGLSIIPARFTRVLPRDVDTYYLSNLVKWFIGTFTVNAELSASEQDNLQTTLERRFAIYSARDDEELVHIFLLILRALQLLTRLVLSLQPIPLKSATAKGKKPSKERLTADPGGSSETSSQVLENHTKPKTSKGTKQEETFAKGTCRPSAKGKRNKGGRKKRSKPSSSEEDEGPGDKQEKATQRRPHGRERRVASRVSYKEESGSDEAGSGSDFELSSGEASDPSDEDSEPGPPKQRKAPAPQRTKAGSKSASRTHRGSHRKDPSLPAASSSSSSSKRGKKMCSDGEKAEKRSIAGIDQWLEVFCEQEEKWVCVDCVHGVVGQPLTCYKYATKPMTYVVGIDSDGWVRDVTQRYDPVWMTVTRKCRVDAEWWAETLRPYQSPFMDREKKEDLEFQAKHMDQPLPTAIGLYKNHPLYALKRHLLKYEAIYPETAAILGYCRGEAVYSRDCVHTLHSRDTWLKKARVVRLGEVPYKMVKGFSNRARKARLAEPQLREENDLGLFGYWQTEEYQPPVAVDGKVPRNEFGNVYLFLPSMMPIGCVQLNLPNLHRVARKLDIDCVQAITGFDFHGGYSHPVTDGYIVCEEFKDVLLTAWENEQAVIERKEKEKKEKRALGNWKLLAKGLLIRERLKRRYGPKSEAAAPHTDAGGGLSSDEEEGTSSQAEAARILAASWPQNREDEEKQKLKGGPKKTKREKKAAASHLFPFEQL
Experiment: co-IP

binding result: binds
B1: Rad23B (natural protein, human, UniProt P54727 1-409, looked up)
chain: MQVTLKTLQQQTFKIDIDPEETVKALKEKIESEKGKDAFPVAGQKLIYAGKILNDDTALKEYKIDEKNFVVVMVTKPKAVSTPAPATTQQSAPASTTAVTSSTTTTVAQAPTPVPALAPTSTPASITPASATASSEPAPASAAKQEKPAEKPAETPVATSPTATDSTSGDSSRSNLFEDATSALVTGQSYENMVTEIMSMGYEREQVIAALRASFNNPDRAVEYLLMGIPGDRESQAVVDPPQAASTGAPQSSAVAAAAATTTATTTTTSSGGHPLEFLRNQPQFQQMRQIIQQNPSLLPALLQQIGRENPQLLQQISQHQEHFIQMLNEPVQEAGGQGGGGGGGSGGIAEAGSGHMNYIQVTPQEKEAIERLKALGFPEGLVIQAYFACEKNENLAANFLLQQNFDED
